The record followed here is PMC8327961, “Nse5/6 inhibits the Smc5/6 ATPase and modulates DNA substrate binding” (The EMBO Journal, 2021).

What all share (test): cross-linking; BMOE (1 mM, 45 s) on hexamers with reporter cysteines, 0.5 µM in ATPase buffer; without or with Nse5/6 (0.625 µM), 2 mM ATP, plasmid DNA or 40 bp DNA; SDS-PAGE, Coomassie
Common to all, as to details: both partners purified

The target in one assay is T1, Smc6-3C-Twin-Strep (S. cerevisiae, UniProt Q12749 1-1114).
T1 construct: Smc6, S. cerevisiae; stood in the assays as a subunit of the hexamer or octamer; also called Smc6-Twin-Strep; Smc6-3C-TS; source: E. coli (DE3) Rosetta, co-expressed with the other subunits of the hexamer, purified as part of the complex; not shown: Twin-Strep (after a 3C site), C-terminal, kept
T1 sequence (looked up): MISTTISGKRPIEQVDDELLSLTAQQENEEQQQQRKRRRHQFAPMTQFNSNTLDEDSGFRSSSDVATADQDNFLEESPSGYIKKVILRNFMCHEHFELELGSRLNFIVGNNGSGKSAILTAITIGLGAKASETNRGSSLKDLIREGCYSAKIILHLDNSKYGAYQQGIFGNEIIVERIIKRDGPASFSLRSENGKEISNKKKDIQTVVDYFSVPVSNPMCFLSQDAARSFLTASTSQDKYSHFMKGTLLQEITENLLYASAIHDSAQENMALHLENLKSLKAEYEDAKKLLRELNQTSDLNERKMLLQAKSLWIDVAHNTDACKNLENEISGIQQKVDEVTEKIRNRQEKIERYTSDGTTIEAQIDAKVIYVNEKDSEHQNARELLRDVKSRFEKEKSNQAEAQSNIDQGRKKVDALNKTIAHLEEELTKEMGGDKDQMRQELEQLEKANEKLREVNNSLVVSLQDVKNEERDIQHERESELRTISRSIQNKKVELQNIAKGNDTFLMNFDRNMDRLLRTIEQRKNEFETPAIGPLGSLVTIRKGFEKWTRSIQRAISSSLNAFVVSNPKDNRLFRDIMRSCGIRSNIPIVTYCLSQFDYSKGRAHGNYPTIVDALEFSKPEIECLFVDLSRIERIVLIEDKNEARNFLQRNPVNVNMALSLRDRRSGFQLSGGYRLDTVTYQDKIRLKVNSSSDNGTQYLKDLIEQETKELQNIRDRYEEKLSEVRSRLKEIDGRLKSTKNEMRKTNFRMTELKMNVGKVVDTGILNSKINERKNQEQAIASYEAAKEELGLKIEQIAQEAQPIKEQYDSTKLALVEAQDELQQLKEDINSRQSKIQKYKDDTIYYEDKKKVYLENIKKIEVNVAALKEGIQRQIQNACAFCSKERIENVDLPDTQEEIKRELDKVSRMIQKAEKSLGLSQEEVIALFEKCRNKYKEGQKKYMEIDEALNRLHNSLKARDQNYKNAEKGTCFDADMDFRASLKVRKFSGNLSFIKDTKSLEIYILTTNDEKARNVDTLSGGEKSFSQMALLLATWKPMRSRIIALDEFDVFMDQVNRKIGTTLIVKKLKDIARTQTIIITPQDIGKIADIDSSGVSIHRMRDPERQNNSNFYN

The next assay has as its target T2, Smc6(N572C) (S. cerevisiae, UniProt Q12749 1-1114, N572C).
T2 construct: Smc6, S. cerevisiae; subunit of the Hinge-Cys (north) hexamer; also called Hinge-Cys north, Smc6; source: E. coli (DE3) Rosetta, purified as part of the hexamer
T2 sequence (looked up): T1 sequence (looked up) with N572C

In another assay the target is T3, Smc6(N643C) (S. cerevisiae, UniProt Q12749 1-1114, N643C).
T3 construct: Smc6, S. cerevisiae; subunit of the Hinge-Cys (south) hexamer; also called Hinge-Cys south, Smc6; source: E. coli (DE3) Rosetta, purified as part of the hexamer
T3 sequence (looked up): T1 sequence (looked up) with N643C

Numbering of substitutions follows the chain as printed. Numbers in names are those of the source.

B1: Smc5(N975C) (natural protein, S. cerevisiae, UniProt Q08204 1-1093, looked up)
chain: MTSLIDLGRYVERTHHGEDTEPRSKRVKIAKPDLSSFQPGSIIKIRLQDFVTYTLTEFNLSPSLNMIIGPNGSGKSTFVCAVCLGLAGKPEYIGRSKKVEDFIKNGQDVSKIEITLKNSPNVTDIEYIDARDETIKITRIITRSKRRSDYLINDYQVSESVVKTLVAQLNIQLDNLCQFLSQERVEEFARLKSVKLLVETIRSIDASLLDVLDELRELQGNEQSLQKDLDFKKAKIVHLRQESDKLRKSVESLRDFQNKKGEIELHSQLLPYVKVKDHKEKLNIYKEEYERAKANLRAILKDKKPFANTKKTLENQVEELTEKCSLKTDEFLKAKEKINEIFEKLNTIRDEVIKKKNQNEYYRGRTKKLQATIISTKEDFLRSQEILAQTHLPEKSVFEDIDIKRKEIINKEGEIRDLISEIDAKANAINHEMRSIQRQAESKTKSLTTTDKIGILNQDQDLKEVRDAVLMVREHPEMKDKILEPPIMTVSAINAQFAAYLAQCVDYNTSKALTVVDSDSYKLFANPILDKFKVNLRELSSADTTPPVPAETVRDLGFEGYLSDFITGDKRVMKMLCQTSKIHTIPVSRRELTPAQIKKLITPRPNGKILFKRIIHGNRLVDIKQSAYGSKQVFPTDVSIKQTNFYQGSIMSNEQKIRIENEIINLKNEYNDRKSTLDALSNQKSGYRHELSELASKNDDINREAHQLNEIRKKYTMRKSTIETLREKLDQLKREARKDVSQKIKDIDDQIQQLLLKQRHLLSKMASSMKSLKNCQKELISTQILQFEAQNMDVSMNDVIGFFNEREADLKSQYEDKKKFVKEMRDTPEFQSWMREIRSYDQDTKEKLNKVAEKYEEEGNFNLSFVQDVLDKLESEIAMVNHDESAVTILDQVTAELRELEHTVPQQSKDLETIKAKLKEDHAVLEPKLDDIVSKISARFARLFNNVGSAGAVRLEKPKDYAEWKIEIMVKFRDCAPLKKLDSHTQSGGERAVSTVLYMIALQEFTSAPFRVVDEINQGMDSRNERIVHKAMVENACAENTSQYFLITPKLLTGLHYHEKMRIHCVMAGSWIPNPSEDPKMIHFGETSNYSFD
notes: Smc5, S. cerevisiae; pairs with the natural cysteines C92 and C147 of Smc6; also called E-Cys, Smc5; source: E. coli (DE3) Rosetta, purified as part of the hexamer
Turning to B1, the binding result with Smc6-3C-Twin-Strep was “binds”.

B2: Smc5(V638C) (natural protein, S. cerevisiae, UniProt Q08204 1-1093, looked up)
chain: B1 chain with V638C, C975N
notes: Smc5, S. cerevisiae; subunit of the Hinge-Cys (north) hexamer; also called Hinge-Cys north, Smc5; source: E. coli (DE3) Rosetta, purified as part of the hexamer
Take B2: the binding result with Smc6(N572C) is given as “binds”.

B3: Smc5(N526C) (natural protein, S. cerevisiae, UniProt Q08204 1-1093, looked up)
chain: B1 chain with N526C, C975N
notes: Smc5, S. cerevisiae; subunit of the Hinge-Cys (south) hexamer; also called Hinge-Cys south, Smc5; source: E. coli (DE3) Rosetta, purified as part of the hexamer
Turning to B3, the binding result with Smc6(N643C) was “binds”.
